Common to all, as to details: remark: other sources report otherwise
Test [1] has as its target SARS-CoV-2 spike protein (SARS-CoV-2), P0DTC2.
The target of test [2] is SARS-CoV-2 full length spike protein, wild type, expressed on the surface of CHO cells (SARS-CoV-2), P0DTC2.
The target of test [3] is SARS-CoV-2 spike protein (SARS-CoV-2), P0DTC2. In words: HT-SPR, Carterra LSA; mAb coupled to chip, antigen injected; 1:1 fit.
The target in test [4] is SARS-CoV-2 spike (S) protein (SARS-CoV-2), P0DTC2.

Where “and” joins values, the source holds several entries; their conditions need not be identical. Equal values may be shown once. Read-outs that look alike come from different tables or passages of the source. Where only a bound is given, the exact number is not on record here.

B1: antibody 436 (antibody, V domains shown)
VH: QVQVVESGGGVVQPGRSLRLSCAASGFTFSSYAMHWVRQAPGKGLEWVAVISYDGNNEYYVDPVKGRFTISRDNSKNTLYLQMNSLRAEDTALYYCATSREAIVVGGILDYWGQGTLVTVSS
VL: DIQMTQSPSSLSASVGDRVTITCQASHDINNFLNWYQQKPGQAPKLLIYDASNLETGVPSRFSGSGSGTDFTFTISSLHPEDVATYYCQQYDGLPRYVTFGQGTKLEIR
Turning to B1, in test [1], the Kd (commonly the equilibrium constant for the complex coming apart) was found to be 19.4 nM, the koff (usually a measure of how fast the partners let go of each other) was determined as 0.000352 s⁻¹ and the kon (commonly the second-order rate constant of association) is 18200 M⁻¹ s⁻¹.

B2: antibody 464 (antibody, V domains shown)
VH: QVQLVQSGAEVKKPGASVKVSCKVSGYTLTELSMHWVRQAPGKGLEWMGGFDPEDGETIYAQKFQGRVTMTEDTSTDTAYMELSSLRSEDTAVYYCATARAFGVANWFDPWGQGTLVTVSS
VL: QSVLTQPPSASGTPGQRVTISCSGSSSNIGSNYVYWYQQLPGTAPKLLIYRNNQRPSGVPDRFSGSKSGTSASLAISGLRSEDEADYYCAAWDDSLSGLYVFGTGTKVTVL
For B2, in test [1], the Kd amounted to 4.58 nM, the koff is 0.000512 s⁻¹ and the kon was 112000 M⁻¹ s⁻¹.

B3: antibody 490 (antibody, V domains shown)
VH: QVQLQESGPGLVKPSGTLSLTCAVSGGSISSSNWWSWVRQPPGKGLEWIGELYHSGSTNYNPSLKSRVTISVDKSKNQFSLKLSSVTAADTAVYYCARVGPYYYDSSGYYNYFDYWGPGTLVTVSS
VL: EIVLTQSPATLSLSPGERATLSCRASQSVSSYLAWYQQKPGQAPRLLIYDASNRATGIPARFSGSGSGTDFTLTISSLEPEDFAVYYCQQRSNWPPGITFGQGTRLEIK
Consider B3, for which, in test [2], the median fluorescence fold over isotype control (fold over isotype) was 1.07 and 1.28 and 1.08.

B4: antibody 493 (antibody, V domains shown)
VH: EVQLVESGGGLIQPGRSLRLSCAASGFTVSITYMSWVRQAPGKGLEWVSLIYSGGSSYYADSVKGRFTISRDNSKNTLYLQMNSLRAEDTAVYYCATTMVRGVIISYYYGMDVWGQGTTVTVSS
VL: QSALTQPASVSGSPGQSITISCTGTSSDVGGYNYVSWYQQHPGKAPKLMIYEVSNRPSGVSNRFSGSKSGNTASLTISGLQAEDEADYYCSSYTSSSTLVFGGGTKLTVL
Consider B4, for which, in test [2], the median fluorescence fold over isotype control (fold over isotype) is 1.26 and 1.1. Moreover, in test [3], the Kd was less than 0.133 nM and the koff was less than 1e-05 s⁻¹.

B5: antibody 383 (antibody, V domains shown)
VH: EVQLVESGGGLVQPGGSLRLSCAASGFTFSSYDMHWVRQATGKGLEWVSTIGTAGDTYYPGSVKGRFTISRENAKNSLYLQMNSLRAGDTAVYYCARVAYSSSFVYWYFDLWGRGTLVTVSS
VL: DIQMTQSPSSLSASIGDRVTITCRASQSISSYLNWYQQKPGKAPNLLIYAASSLQSGVPSRFSGSGSGTDFTLTISSLQPEDFATYYCQQSYTTPLYTFGQGTKLEIK
Regarding B5, in test [4], the Kd was 0.772 nM, the dissociation rate constant (koff) is 7.09e-05 s⁻¹ and the kon came out at 91800 M⁻¹ s⁻¹.

B6: antibody 374 (antibody, V domains shown)
VH: QVQLQESGPGLVKPSGTLSLTCAVSGGSISSSKWWSWVRQPPGKGLEWIGEIYHSGSTNYNPSLKSRVTISVDKSKNQFSLKLSSVTAADTAVYYCARRELGEGTFTYWGQGTLVTVSS
VL: not shown
In test [4], B6 showed a Kd of 1.58 nM, a koff of 7.86e-05 s⁻¹ and a kon of 49600 M⁻¹ s⁻¹.

B7: antibody 382 (antibody, V domains shown)
VH: QVQLVESGGGVVQPGRSLRLSCAASGFTFSNYGMHWVRQAPGKGLEWMTVISFDGRNKYYADSVKGRFTISRDNSKNTLFLQMNSLTTEDTALYFCASGRRPRYSSGWSFDYWGQGTLVTVSS
VL: DIQMTQSPSSLSASVGDRVTITCQASQDIGNYLNWYQQKLGKAPNLLIYDASNLETGVPSRFSGSGSGTDFTFTINSLQPEDTATYYCQQYDDPSITFGQGTRLEIK
As for B7, in test [4], the Kd worked out at 11.2 nM, the koff turned out to be 0.00134 s⁻¹ and the kon is 120000 M⁻¹ s⁻¹.

Source of the values: patent publication US20210292393A1.
